Experimental data as given in publication PMC10893412, “Genetic and Biochemical Characterization of AXC-2 from Achromobacter ruhlandii” (Pathogens, 2024).

Key:
Experiment in all cases: purified protein
Conditions in all cases: 25 mM sodium phosphate pH 7.5, 25 °C
[1] = tested on: CC1=C(C(=O)O)N2C(=O)[C@@H](NC(=O)[C@H](N)c3ccccc3)[C@H]2SC1
[2] = tested on: C[C@@H](O)[C@H]1C(=O)N2C(C(=O)O)=C(SCCN=CN)C[C@H]12; assay type: biochemical, Achromobacter ruhlandii
Text: (§1) UV/Vis spectrophotometric hydrolysis, steady state on AXC-2

[3] = tested on: CO/N=C(\C(=O)N[C@@H]1C(=O)N2C(C(=O)[O-])=C(C[N+]3(C)CCCC3)CS[C@H]12)c1csc(N)n1; assay type: biochemical, Achromobacter ruhlandii
Text: as §1

[4] = tested on: CO/N=C(\C(=O)N[C@@H]1C(=O)N2C(C(=O)O)=C(CSc3nc(=O)c(=O)[nH]n3C)CS[C@H]12)c1csc(N)n1; assay type: biochemical, Achromobacter ruhlandii
Text: as §1

[5] = tested on: CC1(C)S[C@@H]2[C@H](NC(=O)[C@H](N)c3ccccc3)C(=O)N2[C@H]1C(=O)O; assay type: biochemical, Achromobacter ruhlandii
Text: as §1

[6] = tested on: CC1(C)S[C@@H]2[C@H](NC(=O)Cc3ccccc3)C(=O)N2[C@H]1C(=O)O; assay type: biochemical, Achromobacter ruhlandii
Text: as §1

[7] = tested on: O=C(Cc1cccs1)N[C@@H]1C(=O)N2C(C(=O)O)=C(/C=C/c3ccc([N+](=O)[O-])cc3[N+](=O)[O-])CS[C@H]12; assay type: biochemical, Achromobacter ruhlandii
Text: as §1

[8] = tested on: C[C@@H](O)[C@H]1C(=O)N2C(C(=O)O)=C(S[C@@H]3CN[C@H](C(=O)N(C)C)C3)[C@H](C)[C@H]12; assay type: biochemical, Achromobacter ruhlandii
Text: as §1

Substance: AXC-2 (Achromobacter ruhlandii)
- Km [1]: 74 ± 14 µM
- kcat [1]: 16 s⁻¹
- kcat/Km [1]: 220000 M⁻¹ s⁻¹
- Km [2]: 6.3 ± 0.8 µM
- kcat [2]: 0.0364 ± 0.0009 s⁻¹
- kcat/Km [2]: 5800 ± 900 M⁻¹ s⁻¹
- Km [3]: 872 ± 254 µM
- kcat [3]: 0.29 ± 0.07 s⁻¹
- kcat/Km [3]: 300 ± 100 M⁻¹ s⁻¹
- Km [4]: 59 ± 6 µM
- kcat [4]: 5.5 ± 0.3 s⁻¹
- kcat/Km [4]: 90000 ± 10000 M⁻¹ s⁻¹
- Km [5]: 344 ± 14 µM
- kcat [5]: 62 ± 5 s⁻¹
- kcat/Km [5]: 180000 ± 20000 M⁻¹ s⁻¹
- Km [6]: 1297 ± 409 µM
- kcat [6]: 125 ± 28 s⁻¹
- kcat/Km [6]: 100000 ± 50000 M⁻¹ s⁻¹
- Km [7]: 202 ± 24 µM
- kcat [7]: 40 ± 3 s⁻¹
- kcat/Km [7]: 200000 ± 40000 M⁻¹ s⁻¹
- Km [8]: 8 ± 1 µM
- kcat [8]: 0.051 ± 0.002 s⁻¹
- kcat/Km [8]: 7000 ± 1000 M⁻¹ s⁻¹
